B1: HDV Ribozyme (parent)
chain: GGCCGGCAUGGUCCCAGCCUCCUCGCUGGCGCCGGCUGGGCAACAUUCCGAGGGGACCGUCCCCUCGGUAAUGGCGAAUGGGACCCA

Self-cleavage data for 167 variants are collected here from the RNAGym collection of RNA variant scans (doi:10.7554/elife.80360).

The variants in the data set derive from B1. Briefly: self-cleavage, relative activity (ratio to wild type); higher = more cleavage; co-transcriptional.
Take U47A A56U: the self-cleavage came out at 0.856.

U47A A56C: the self-cleavage amounted to 0.782.

Take U47A C57A: the self-cleavage turned out to be 1.02.

For U47A C48G, the self-cleavage was 0.598.

U46C G80U: the self-cleavage was 0.0903.

On to U46C G80C, for which the self-cleavage is 0.399.

As to U46C G73C, the self-cleavage stood at 0.525.

Regarding U47C A78G, the self-cleavage worked out at 0.807.

As for U47C A78C, the self-cleavage was 0.0898.

With U47C C57U, the self-cleavage was found to be 0.712.

As for U46G A71G, the self-cleavage came out at 0.772.

U46G A71C: the self-cleavage is 0.982.

For U46G G50U, the self-cleavage is 0.458.

U46G G50A: the self-cleavage turned out to be 0.525.

As to U46C U79G, the self-cleavage is 0.554.

On to U46C U79C, for which the self-cleavage came to 0.432.

In the case of U46C G54U, the self-cleavage was determined as 0.786.

In the case of U46G G52C, the self-cleavage worked out at 0.429.

Take U47A G73A: the self-cleavage came to 0.447.

For the variant U47A G73U, the self-cleavage is 0.142.

With U47A G73C, the self-cleavage turned out to be 0.665.

In the case of U47A G74U, the self-cleavage was determined as 0.447.

As for U47A G74A, the self-cleavage came out at 0.688.

With U47C, the self-cleavage amounted to 0.906.

Consider U47A, for which the self-cleavage was 0.958.

Turning to U46C U65G, the self-cleavage came out at 1.09.

In the case of U47A C58U, the self-cleavage was determined as 1.03.

For the variant U47A C58G, the self-cleavage amounted to 0.855.

As for U47A C58A, the self-cleavage stood at 0.957.

In the case of U47A A78C, the self-cleavage came out at 0.147.

As to U47A G54U, the self-cleavage is 0.91.

In the case of U46G G68C, the self-cleavage came to 0.396.

As for U46G G68U, the self-cleavage is 0.554.

As to U47C A51U, the self-cleavage amounted to 0.831.

For U47C A51C, the self-cleavage came out at 0.776.

U46C G76A: the self-cleavage was 1.01.

Turning to U46C G68A, the self-cleavage was found to be 0.415.

With U46G G53C, the self-cleavage is 0.465.

U46G G67C: the self-cleavage is 0.208.

On to U46G U60A, for which the self-cleavage worked out at 0.453.

As for U46G U60G, the self-cleavage worked out at 0.415.

For the variant U47A A87C, the self-cleavage came out at 0.95.

Consider U47A A87U, for which the self-cleavage was determined as 1.03.

On to U47A A87G, for which the self-cleavage stood at 0.96.

In the case of U46C U72A, the self-cleavage is 0.504.

As to U46C U72G, the self-cleavage stood at 0.475.

Take U46C U72C: the self-cleavage came out at 0.684.

Regarding U47A C61G, the self-cleavage stood at 0.639.

As to U46G C57U, the self-cleavage turned out to be 0.86.

U46G C57A: the self-cleavage was found to be 0.635.

U46G C86A: the self-cleavage was found to be 0.684.

For U46G C86U, the self-cleavage is 0.277.

As to U46G A70G, the self-cleavage was determined as 0.511.

Regarding U46G A70U, the self-cleavage amounted to 0.997.

U46G A70C: the self-cleavage is 0.665.

With U46G C63G, the self-cleavage is 0.293.

On to U46G C63A, for which the self-cleavage was determined as 0.415.

Turning to U46C G81C, the self-cleavage worked out at 0.302.

In the case of U47A G76C, the self-cleavage came to 0.812.

In the case of U46G C61G, the self-cleavage turned out to be 0.649.

As to U46G C61U, the self-cleavage was found to be 0.332.

U46C U60G: the self-cleavage came out at 0.755.

With U46C U60A, the self-cleavage is 0.674.

For the variant U47A U79G, the self-cleavage is 0.895.

U46G C62U: the self-cleavage is 0.811.

With U47A G50A, the self-cleavage was found to be 0.876.

In the case of U46G G59U, the self-cleavage was 0.902.

On to U46G U69G, for which the self-cleavage came out at 0.776.

Turning to U46G U69A, the self-cleavage amounted to 0.665.

For the variant U46G C66U, the self-cleavage worked out at 0.673.

U46C G74A: the self-cleavage came out at 0.48.

Turning to U46C G74U, the self-cleavage is 0.554.

In the case of U46G C48A, the self-cleavage turned out to be 0.903.

Consider U47A A51C, for which the self-cleavage is 1.13.

Regarding U47A A51U, the self-cleavage worked out at 1.03.

Take U47A A51G: the self-cleavage turned out to be 0.902.

Take U46G U65A: the self-cleavage came out at 0.582.

Regarding U46G U65G, the self-cleavage was 0.712.

As for U46G C85U, the self-cleavage is 0.831.

Consider U46G C85A, for which the self-cleavage came to 0.831.

Regarding U46G A87G, the self-cleavage amounted to 0.724.

For U47A U69C, the self-cleavage stood at 0.764.

Turning to U46G C75U, the self-cleavage was 0.107.

With U46G U72C, the self-cleavage was determined as 0.287.

Take U46G: the self-cleavage was 0.793.

U47C A71C: the self-cleavage is 0.883.

As for U47A G80U, the self-cleavage is 0.172.

Regarding U47A G80C, the self-cleavage was 0.138.

For U46C G55A, the self-cleavage was found to be 0.878.

In the case of U46C G55C, the self-cleavage amounted to 0.554.

In the case of U47A G59A, the self-cleavage was 0.746.

Consider U47C A77U, for which the self-cleavage was 0.285.

U46G A51C: the self-cleavage is 0.755.

Regarding U46G A51G, the self-cleavage was determined as 0.739.

As to U46G G54C, the self-cleavage amounted to 0.453.

As to U46G G54A, the self-cleavage was 0.656.

As to U46G G54U, the self-cleavage came out at 0.443.

With U46G A83C, the self-cleavage was determined as 0.293.

Regarding U46G A83U, the self-cleavage is 0.

In the case of U46G G74A, the self-cleavage stood at 0.365.

As for U46G U47C, the self-cleavage was 0.623.

Take U46G U47A: the self-cleavage was 0.8.

Turning to U46G G55A, the self-cleavage came out at 0.649.

For the variant U46G G55C, the self-cleavage amounted to 0.98.

As for U46G U79A, the self-cleavage came out at 0.356.

With U47C C58A, the self-cleavage came to 0.779.

Turning to U47C C58G, the self-cleavage amounted to 0.807.

On to U47C C58U, for which the self-cleavage was found to be 0.752.

For the variant U47C C62A, the self-cleavage worked out at 1.06.

In the case of U46C G59A, the self-cleavage was 0.776.

In the case of U46C G59U, the self-cleavage is 0.962.

As for U46G G82C, the self-cleavage was found to be 0.158.

Consider U46G G82U, for which the self-cleavage was 0.229.

Regarding U46G A56C, the self-cleavage was 0.959.

For the variant U46C G67C, the self-cleavage was 0.469.

U46C G67U: the self-cleavage came to 0.831.

Regarding U47A G67A, the self-cleavage was 0.897.

For U47A G67U, the self-cleavage was determined as 1.14.

For U47A G82C, the self-cleavage was found to be 0.489.

In the case of U47A C64G, the self-cleavage turned out to be 0.978.

As for U47A C64A, the self-cleavage is 1.08.

For U47C A87G, the self-cleavage worked out at 0.876.

As for U47C A87C, the self-cleavage was found to be 0.95.

For the variant U47C A87U, the self-cleavage amounted to 0.746.

With U46G C84G, the self-cleavage was 0.185.

On to U46G C84U, for which the self-cleavage was determined as 0.287.

On to U47A C85U, for which the self-cleavage stood at 1.03.

With U46G G73U, the self-cleavage was determined as 0.514.

As to U46G A77U, the self-cleavage stood at 0.0831.

U46G A77G: the self-cleavage was 0.415.

As for U47A C49G, the self-cleavage came to 1.42.

In the case of U47C C49G, the self-cleavage is 0.978.

On to U47C C49U, for which the self-cleavage is 0.864.

Regarding U47C A70G, the self-cleavage is 1.08.

As to U47C A70U, the self-cleavage stood at 0.864.

Consider U46G C64G, for which the self-cleavage came out at 0.525.

On to U46G C64A, for which the self-cleavage was determined as 0.0831.

On to U46G C64U, for which the self-cleavage amounted to 0.776.

For the variant U46G G80U, the self-cleavage was found to be 0.202.

With U46G G80C, the self-cleavage was 0.185.

With U47A C66G, the self-cleavage amounted to 0.982.

With U47A C66A, the self-cleavage is 0.847.

For the variant U46G C58G, the self-cleavage was determined as 0.89.

As to U46G G81C, the self-cleavage turned out to be 0.175.

For U46G G81A, the self-cleavage stood at 0.222.

For the variant U47C C61A, the self-cleavage came out at 0.872.

As to U47C C61G, the self-cleavage amounted to 0.65.

On to U46C G82A, for which the self-cleavage turned out to be 0.224.

Regarding U46C G82C, the self-cleavage came out at 0.243.

With U47A A83C, the self-cleavage was found to be 0.391.

In the case of U47A A83U, the self-cleavage is 0.287.

On to U47A G52U, for which the self-cleavage was 0.845.

Regarding U47A G52A, the self-cleavage is 0.975.

As to U47A G55U, the self-cleavage is 1.01.

In the case of U47A G55A, the self-cleavage is 0.927.

With U47A C84A, the self-cleavage was determined as 0.808.

Consider U46G G76C, for which the self-cleavage was 0.95.

As to U46G G76A, the self-cleavage turned out to be 0.911.

Take U47A C62A: the self-cleavage was 1.01.

For U46C U69C, the self-cleavage worked out at 1.12.

Turning to U47A A70G, the self-cleavage was found to be 0.831.

With U47A A70U, the self-cleavage is 0.697.

For U47A A70C, the self-cleavage was 0.957.

With U46G A78C, the self-cleavage is 0.277.

On to U47C A56C, for which the self-cleavage came out at 0.831.

In the case of U47C A56U, the self-cleavage came to 0.942.

Take U47A U60G: the self-cleavage stood at 1.02.
